Data published in patent US20130122577, “KIT INCLUDING SEQUENCE SPECIFIC BINDING PROTEIN AND METHOD AND DEVICE FOR DETERMINING NUCLEOTIDE SEQUENCE OF TARGET NUCLEIC ACID” (Samsung Electronics Co., Ltd., published 2013).

Columns and labels:
[1] = target: ZF01 (two-finger zinc finger protein targeting AATTAG, YFP fusion) (Artificial Sequence); assay: EMSA; 20 mM bis-Tris propane pH 7.0, 100 mM NaCl, 5 mM MgCl2, 20 mM ZnSO4 (so in the source), room temperature 1 h; complementary strand SEQ 14 appears printed 3'-5'; conditions: tags: YFP fused via (Gly2Ser)2 linker; Ni-NTA purified from E. coli BL21(DE3), pET21b-YFP-ZF (1)
Sequence of ZF01 (two-finger zinc finger protein targeting AATTAG, YFP fusion) (Artificial Sequence) (chain, as listed by the source): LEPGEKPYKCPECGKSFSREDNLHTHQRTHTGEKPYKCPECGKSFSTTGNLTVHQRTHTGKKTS
Method: (§1) In order to identify whether the sequence specific binding protein prepared in Example 2 specifically binds to the target nucleic acid, a gel mobility shift assay was performed.
(§2) First, a 20-mer oligonucleotide including the nucleotide sequences AATTAG or AACTGA, which the sequence specific binding protein may specifically recognize, was synthesized (SEQ ID NO. 13 to SEQ ID NO. 16). Subsequently, each of the oligonucleotides of SEQ ID NOS. 13 and 14, SEQ ID NOS. 15 and 16 was annealed to prepare a target nucleic acid. The prepared target nucleic acid and the protein prepared in Example 2 was added to a buffer solution (including 10 ml of 20 mM bis-Tris propane (pH 7.0); 100 mM NaCl; 5 mM MgCl₂; 20 mM ZnSO₄; 10% glycerol; 0.1% Nonidet P-40; 5 mM DTT; and 0.10 mg/ml BSA), followed by reaction at room temperature for about 1 hour. The reactant was subjected to non-denaturing PAGE and as a result as shown in FIG. 6 and FIG. 7, it was identified that a combined product of a target nucleic acid 1 (a polynucleotide fragment including AATTAG) or 2 (a polynucleotide fragment including AACTGA) with ZF01 or ZF02 respectively recognizing the nucleic acid 1 or 2 was shorter in mobility distance on the gel than a negative control group (target nucleic acid).

[2] = target: ZF02 (two-finger zinc finger protein targeting AACTGA, YFP fusion) (Artificial Sequence); assay: EMSA; 20 mM bis-Tris propane pH 7.0, 100 mM NaCl, 5 mM MgCl2, 20 mM ZnSO4 (so in the source), room temperature 1 h; complementary strand SEQ 16 appears printed 3'-5'; conditions: tags: YFP fused via (Gly2Ser)2 linker; Ni-NTA purified from E. coli BL21(DE3), pET21b-YFP-ZF (2)
Sequence of ZF02 (two-finger zinc finger protein targeting AACTGA, YFP fusion) (Artificial Sequence) (chain, as listed by the source): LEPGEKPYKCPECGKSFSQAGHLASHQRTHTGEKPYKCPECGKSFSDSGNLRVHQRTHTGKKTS
Method: as §1, §2

B1: target nucleic acid 1 (AATTAG 20-mer duplex) (dsDNA)
DNA 1: TTTTTTTAATTAGTTTTTTT
DNA 2: AAAAAAACTAATTAAAAAAA
**Q.** Does B1 bind [1]?
**A.** Result: binds

B2: target nucleic acid 2 (AACTGA 20-mer duplex) (dsDNA)
DNA 1: TTTTTTTAACTGATTTTTTT
DNA 2: AAAAAAATCAGTTAAAAAAA
**Q.** Does B2 bind [2]?
**A.** Result: binds
